From PMC8432736

Biological target: Recombinant active ACE2-Fc (ACRO biosystems, AC2-H5257) (human) (UniProt Q9BYF1)
Assay: SPR

Sequence of UniProt Q9BYF1 (Q9BYF1 18-740): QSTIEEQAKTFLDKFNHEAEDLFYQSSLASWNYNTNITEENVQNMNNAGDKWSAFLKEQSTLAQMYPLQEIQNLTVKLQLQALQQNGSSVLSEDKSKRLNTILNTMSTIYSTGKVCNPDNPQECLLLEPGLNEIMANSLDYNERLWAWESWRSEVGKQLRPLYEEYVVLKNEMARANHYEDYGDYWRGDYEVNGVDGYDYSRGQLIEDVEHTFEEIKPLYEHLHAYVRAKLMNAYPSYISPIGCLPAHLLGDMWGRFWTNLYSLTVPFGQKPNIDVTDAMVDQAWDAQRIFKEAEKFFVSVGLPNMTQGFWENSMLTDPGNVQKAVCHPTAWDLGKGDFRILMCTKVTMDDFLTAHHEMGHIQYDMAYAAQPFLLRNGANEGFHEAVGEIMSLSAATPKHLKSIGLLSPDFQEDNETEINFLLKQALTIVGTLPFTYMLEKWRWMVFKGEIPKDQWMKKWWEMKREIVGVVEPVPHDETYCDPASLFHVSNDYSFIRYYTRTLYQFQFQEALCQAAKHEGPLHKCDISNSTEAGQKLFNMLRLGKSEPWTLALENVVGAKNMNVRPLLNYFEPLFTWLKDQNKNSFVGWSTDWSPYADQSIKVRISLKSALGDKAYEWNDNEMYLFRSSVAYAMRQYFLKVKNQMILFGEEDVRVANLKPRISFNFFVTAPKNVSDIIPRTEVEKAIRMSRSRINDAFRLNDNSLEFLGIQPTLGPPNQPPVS

**Q.** How did the Kd turn out when Angiotensin II (peptide) was run?
**A.** 117 nM
